Molecular target: T1, Rituximab (human IgG1), biotinylated (human)
T1 construct: Whole IgG; In the first screen it was oligomerized with streptavidin-phycoerythrin; in SPR it was captured on a streptavidin chip; also called Rituxan; IgG1 Rituxan
Assay: titration of biotinylated Rituxan on yeast displaying the clone; pH 8 implied
Method: We then determined the Kd of exemplary isolated clones for IgG at different pHs. Measurements were taken via titrations of biotinylated Rituxan (Rituximab) using yeast surface display as discussed in the materials and methods sections.
Yeast cells (EBY100) containing plasmid encoding the designs, were grown overnight at 30° C. in SDCAA medium. For induction, they were sub-cultured into SGCAA to achieve an O.D. of 1, and grown at 22° C. for 16-20 h. Cells were washed once with PBS containing 0.5% BSA (PBS-BSA), before adding 700 nM biotinylated IgG (Rituximab) into a total volume of 50 μl of the same buffer. […] Cells were washed once with ice cold PBS-BSA immediately before measuring their fluorescence via an Accuri C6 flow cytometer, data was analyzed using the FlowJo 7.6.1 and 8.8.7 software.

Kd: ~2 nM
B1: FcB6.1 (designed binder)
chain: PEEALIVVDMQRDFMPGGALPVPEGDKIIPKVNEYIRKFKEKGALIVATRDWHPENHISFRERGGPWPRHCVQNTPGAEFVVDLPEDAVIISKATEPDKEAYSGFEGTDLAKILRGNGVKRVYICGVATEYCVSRTAVDALKHGFEVYLLRDAVKGIKPTFEQQSFFYMSLKGIKIVQF
notes: Clone from the pH 8 selection of the focused library; also called Fc24.47

Source: US20150037312A1 (University of Washington, published 2015)
